Reference: paper PMC9276737

Columns and labels:
Settings in all cases: 2 nM 32P-labelled DNA; binding buffer, salt, pH and temperature only by reference (refs 50, 51); native 6% polyacrylamide gel for EMSA
[1] = target: T1, MgaSpn-His (Streptococcus pneumoniae R6) (UniProt Q8DNN5); experiment: EMSA
T1 sequence: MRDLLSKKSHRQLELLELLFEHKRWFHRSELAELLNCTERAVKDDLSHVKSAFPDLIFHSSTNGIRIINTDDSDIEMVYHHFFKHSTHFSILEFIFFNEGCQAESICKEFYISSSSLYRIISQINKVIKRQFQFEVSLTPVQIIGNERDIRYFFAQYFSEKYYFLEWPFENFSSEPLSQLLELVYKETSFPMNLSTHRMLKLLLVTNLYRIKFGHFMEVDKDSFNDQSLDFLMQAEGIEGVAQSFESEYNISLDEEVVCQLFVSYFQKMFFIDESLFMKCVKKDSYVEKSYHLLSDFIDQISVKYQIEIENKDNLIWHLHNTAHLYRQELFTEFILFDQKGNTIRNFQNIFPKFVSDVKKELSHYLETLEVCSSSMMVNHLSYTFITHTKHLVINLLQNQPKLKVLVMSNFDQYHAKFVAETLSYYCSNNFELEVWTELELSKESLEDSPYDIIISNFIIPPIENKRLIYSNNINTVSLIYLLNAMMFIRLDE

[2] = target: T2, PclR-His (Streptococcus pneumoniae R6) (UniProt Q8DP24); experiment: EMSA
T2 sequence: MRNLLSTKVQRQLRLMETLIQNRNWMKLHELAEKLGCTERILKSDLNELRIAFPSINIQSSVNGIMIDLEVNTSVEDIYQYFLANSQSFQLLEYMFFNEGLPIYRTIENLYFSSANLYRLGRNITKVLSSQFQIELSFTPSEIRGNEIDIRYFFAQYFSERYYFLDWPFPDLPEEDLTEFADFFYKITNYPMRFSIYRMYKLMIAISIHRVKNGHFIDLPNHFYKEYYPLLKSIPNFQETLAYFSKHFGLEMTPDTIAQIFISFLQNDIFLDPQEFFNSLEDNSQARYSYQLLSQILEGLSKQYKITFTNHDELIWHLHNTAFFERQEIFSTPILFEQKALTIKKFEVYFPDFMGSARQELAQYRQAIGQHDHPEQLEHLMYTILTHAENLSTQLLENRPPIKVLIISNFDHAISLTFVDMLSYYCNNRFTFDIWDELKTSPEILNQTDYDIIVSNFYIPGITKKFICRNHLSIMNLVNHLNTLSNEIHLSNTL

[3] = target: T1, MgaSpn-His (Streptococcus pneumoniae R6); experiment: DNase I footprinting
[4] = target: T2, PclR-His (Streptococcus pneumoniae R6); experiment: DNase I footprinting

Sequence | binding [1] | binding [2] | binding [3] | binding [4]
CTCCTAGATAGTATTTTATAGTTTACAATGTACAACTATTTGAGGCATTAATCAATATTTTCTGAACAATTAATATATTCTGTTTTTGCACTTAAAAGCCACTTATATTATTCTAATTTTTCCGATTACTAACGACAATTTTCTTGCTCTAATTTTTTTATACTACTTAGACAAAAAAAGATATAATGAATTATGGAGGAAATACCCGTATGAGAAACCTTTTATCCACAAAAGTTCAAAGACAATTACGCTTAATGGAAACCCTAATTC (double strand) [270-bp PpclA promoter fragment] | binds | binds | binds | binds
CGGCTAGTTCATGTAATTTCATCCAATTACGATTCTGAATTAGGGTTTCCATTAAGCGTAATTGTCTTTGAACTTTTGTGGATAAAAGGTTTCTCATACGGGTATTTCCTCCATAATTCATTATATCTTTTTTTGTCTAAGTAGTATAAAAAAATTAGAGCAAGAAAATTGTCGTTAGTAATCGGAAAAATTAGAATAATATAAGTGGCTTTTAAGTGCAAAAACAGAATATATTAATTGTTCAGAAAATATTGATTAATGCCTCAAATAGTTGTACATTG (double strand) [281-bp PpclA promoter fragment] | – | – | binds | binds
CAAATTCTTTAATTGTTGCTATTATATAATTTTTAAAATTAAAAATATAATCTTTAGACTTGAATTTGATTCTGTATTCACGCCCTCAATAGACGGTAAAATAAGAAAATTGTTTATATATTGTCTCCGTAGTGTTATTATACGAAATAAAAGATTTTAGGAAAAGTCGTTATATCATGCTATACCTATTCTTTGTGGTATAATTGCAAGAGGTTTAATCCG (double strand) [222-bp P1623B promoter fragment] | – | – | – | no binding
